T1: human progastrin (human, UniProt P01350 22-101)
T1 construct: also called hPG; PG
T1 sequence: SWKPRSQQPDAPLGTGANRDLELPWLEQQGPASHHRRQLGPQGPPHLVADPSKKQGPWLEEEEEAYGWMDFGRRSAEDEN

B1: mAb19 (hybridoma 1B3B4F11) (antibody, V domains shown)
VH: DVQLQESGPGLVKPSQSLSLTCTVTGYSITSDYAWNWIRQFPGNKLEWMGYISFSGYTSYNPSLKSRISVTRDTSRNQFFLQLTSVTTEDTATYYCAREVNYGDSYHFDYWGQGTIVTVSS
VL: QLALTQSSSASFSLGASAKLTCTLSSQHRTYTIEWYQQQSLKPPKYVMEVKKDGSHSTGHGIPDRFSGSSSGADRYLSISNIQPEDEAIYICGVGDAIKGQSVFVFGGGTKVTVL
notes: Murine monoclonal antibody
B2: mAb4 (hybridoma 20D2C3G2) (antibody, V domains shown)
VH: QVQLQQSGAELMKPGASVKISCKATGYTFSSSWIEWLKQRPGHGLEWIGEFLPGSGSTDYNEKFKGKATFTADTSSDTAYMLLSSLTSEDSAVYYCATDGNYDWFAYWGQGTLVTVSA
VL: DLVMTQTPLSLPVSLGDQASISCRSSQSLVHSSGVTYLHWYLQKPGQSPKLLIYKVSNRFSGVPDRFSGSGSGTDFTLKISRVEAEDLGVYFCSQSTHVPPTFGSGTKLEIK
notes: Murine monoclonal antibody
B3: mAb3 (hybridoma 6B5B11C10) (antibody, V domains shown)
VH: EVQLQQSGTVLARPGASVKMSCKASGYIFTSYWVHWVKQRPGQGLEWIGGFYPGNSDSRYNQKFKGKATLTAVTSASTAYMDLSSLTNEDSAVYFCTRRDSPQYWGQGTTLTVSS
VL: DVLMTQTPLSLPVSLGDQASISCRSSQSIVHSNGNTYLEWYLQKPGQSPKLLIYKVSNRFSGVPDRFSGSGSGTDFTLKISRLEAEDLGVYYCFQGSHVPFTFGGGTKLEIK
notes: Murine monoclonal antibody
B4: mAb16 (hybridoma 1E9D9B6) (antibody, V domains shown)
VH: QVQLQQSGAELVKPGASVKLSCKASGYTFTSYYMYWVKQRPGQGLEWIGEINPSNGGTNFNEKFKSKATLTVDKSSSTAYMQLSSLTSEDSAVYYCTRGGYYPFDYWGQGTTLTVSS
VL: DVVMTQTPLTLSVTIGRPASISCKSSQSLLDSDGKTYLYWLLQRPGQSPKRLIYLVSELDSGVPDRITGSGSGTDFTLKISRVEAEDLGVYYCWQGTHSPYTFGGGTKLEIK
notes: Murine monoclonal antibody
B5: mAb13 (hybridoma 2C6C3C7) (antibody, V domains shown)
VH: EVQLVESGGGLVQPGGSLKLSCAASGFIFSSYGMSWVRQSPDRRLELVASINTFGDRTYYPDSVKGRFTISRDNAKNTLYLQMTSLKSEDTAIYYCARGTGTYWGQGTTLTVSS
VL: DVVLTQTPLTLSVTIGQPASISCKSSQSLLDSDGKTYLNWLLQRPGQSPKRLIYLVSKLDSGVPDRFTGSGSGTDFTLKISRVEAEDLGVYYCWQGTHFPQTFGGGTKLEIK
notes: Murine monoclonal antibody

From US20200400675A1 (ECS PROGASTRIN, published 2020) come the findings set out here.

In the assay the target is T1, human progastrin. In words: epitope mapping (no details given).
As to B1, the binding result is recorded as “binds”. For the molecule B2, the binding result is recorded as “binds”. The entry for B3 is “binds”; for B4 it is “binds”.

On to B5, for which the binding result is “binds”.
